Publication PMC4991212 (Cell, 2016)

Target: APC2 (cullin subunit of APC/C) (human, UniProt Q9UJX6 1-822)
Assay: cryo-EM structure

- binding result: binds
B1: UBE2C (C102A), catalytic Cys only version, in the multiubiquitination trap (enzyme, human, UniProt O00762 1-179, looked up)
chain: MASQNRDPAATSVAAARKGAEPSGGAARGPVGKRLQQELMTLMMSGDKGISAFPESDNLFKWVGTIHGAAGTVYEDLRYKLSLEFPSGYPYNAPTVKFLTPAYHPNVDTQGNICLDILKEKWSALYDVRTILLSIQSLLGEPNIDSPLNTHAAELWKNPTAFKKYLQETYSKQVTSQEP
modifications: active site Cys joined to the TMEA crosslinker
